Reference: patent US20050287150A1 (UNIVERSITY OF MASSACHUSETTS, published 2005)
Residue numbers refer to the chain shown, from its start.

B1: human monoclonal antibody produced by hybridoma clone 1B11 (antibody, V domains shown)
VH: QMQLVESGGGVVQPGRSLRLSCEASGFSFNSYGMHWVRQAPGKGLEWVSVIWASGNKKYYIESVEGRFTISRDNSKNTLYLQMNSLRAEDTAVYYCARANFDYWGQGTLVTVSS
VL: EIVLTQSPATLSLSPGERATLSCRASQSVSSYLAWYQQKPGQAPRLLIYDASNRATGIPARFSGSGSGTDFTLTISSLEPEDFAVYYCQQRSNWSQFTFGPGTKVDIK
notes: also called HuMAb 1B11
B2: human monoclonal antibody produced by hybridoma clone 3D8 (antibody, V domains shown)
VH: QVQLVESGGGVVQPGRSLRLSCAASGFSFSNYGMHWVRQAPGKGLEWVALIWYDGSNEDYTDSVKGRFTISRDNSKNTLYLQMNSLRAEDTAVYYCARWGMVRGVIDVFDIWGQGTVVTVSS
VL: DIQMTQSPSSVSASVGDRVTITCRASQGISSWLAWYQHKPGKAPKLLIYAASSLQSGVPSRFSGSGSGTDFTLTISSLQPEDFATYYCQQANSFPWTFGQGTKVEIK
notes: also called HuMAb 3D8
B3: human monoclonal antibody produced by hybridoma clone 33.3H2 (antibody, V domains shown)
VH: QVQLVESGGGVVQPGRSLRLSCAASGFTFNKYGMHWVRQAPGKGLEWVAVIWYDGTNKYYADSMKGRFTISRDNSKNMLYLQMNSLRAEDTAVYYCARDPPTANYWGQGTLVTVSS
VL: B2 VL with V11L, H38Q, G41E, L46S, A91Y, N92K, F94Y, W96V, Q100G

Key:
[1] = target: T1, C. difficile toxin A (Clostridium difficile, UniProt P16154 1-2710); assay: ELISA, 1 ug/ml Toxin A coat, O.D. 405 nm, four-parameter fit
[2] = target: toxin A subfragment amino acids 1-290 (Clostridium difficile, UniProt P16154 1-290); assay: western blot on toxin A subfragments
[3] = target: toxin A subfragment amino acids 1-165 (Clostridium difficile, UniProt P16154 1-165); assay: western blot on toxin A subfragments
[4] = target: toxin A subfragment amino acids 1-415 (Clostridium difficile, UniProt P16154 1-415); assay: western blot on toxin A subfragments
[5] = target: T1, C. difficile toxin A; assay: SPR (Biacore), antibody on protein A-coated chip, toxin A flowed over
[6] = target: T1, C. difficile toxin A; assay: ELISA, 1 ug/ml Toxin A coat, O.D. 405 nm
[7] = target: toxin A subfragment amino acids 660-920 (Clostridium difficile, UniProt P16154 660-920); assay: western blot on toxin A subfragments
[8] = target: toxin A subfragment amino acids 660-807 (Clostridium difficile, UniProt P16154 660-807); assay: western blot on toxin A subfragments

Binder | A (lower asymptote of the four-parameter fit) [1] | D (upper asymptote of the four-parameter fit) [1] | EC50 [1] | binding result [2] | binding result [3] | binding result [4] | Kd [5] | EC50 (read off the curve) [6] | binding result [7] | binding result [8]
B1 | 0.203 O.D. 405 nm | 3.58 O.D. 405 nm | 2 ng/mL | no binding | no binding | no binding | 0.738 nM | ~2 ng/mL | – | –
B2 | 0.173 O.D. 405 nm | 3.66 O.D. 405 nm | 4 ng/mL | – | – | – | 1.46 nM | – | – | –
B3 | 0.172 O.D. 405 nm | 3.7 O.D. 405 nm | 5 ng/mL | – | – | – | – | – | no binding | no binding
